Assays:
[1] = tested on: heptanedioyl-ACP methyl ester; assay type: cell-based, Escherichia coli; conditions: for activity toward heptanedioyl-ACP methyl ester in vivo: top 150 hits screened in vivo; for impact on monomethyl heptanedioate production: 146 thioesterases screened; for monomethyl heptanedioate production: bioH deletion strain, TB supplemented with 1 mM IPTG and 2 mM L-rhamnose
[2] = In vivo aminotransferase activity screening, 7-aminoheptanoate by LC-MS; assay type: cell-based, Escherichia coli; conditions: in vivo conversion of 7-oxoheptanoate to 7-aminoheptanoate, 120 aminotransferases screened
Method: A 165-member aminotransferase library from Twist on IPTG-inducible T7- pUC expression vectors was co-transformed into T7 Express lysY/Iq with a constitutive expression pJ23150-derived plasmid bearing the phosphopantetheinyl transferase sfp from Bacillus subtilis, CAR_Srot from Invista and BioC from Serratia marcescens (UniprotKB Accession No. P36571 (SEQ ID NO: 165)). The resulting strains were incubated in 0.5 ml of rich media (terrific broth or LB containing 8% glycerol) supplemented with 0.4 mM IPTG and received 1 g/L monomethyl heptanedioate, 1 g/L heptanedioate, or no organic acid addition, depending on the experiment. Following incubation overnight at 37° C. in a shaking incubator, cells were pelleted and the supernatants were analyzed using LC-MS for 7-aminoheptanoate or monomethyl 7-aminoheptanoate. A Vibrio fluvialis aminotransferase (UniProtKB Accession No. F2XBU9 (SEQ ID NO: 128)) was used as a positive control.

Row | Molecule | activity toward heptanedioyl-ACP methyl ester in vivo [1] | other results
1 | SEQ ID NO: 81: Citrobacter rodentium thioesterase (protein, Citrobacter rodentium (strain ICC168), Citrobacter rodentium thioesterase) MVNFNNVFRWHLPFLFLILFTCRSVAADTLLILGDSLSAGYRMSASAAWPALLNDKWHSKTTIVNASISGDTSGQALARLPALLKQHQPRWVLVELGGNDGLRGFSPAQTEQTLRTILQNVKAASAEPLLMQIRLPANYGRRYNETFSAIYPKLASEFDIPLLPFFMEEVYLKPQWMQDDGIHPNRDAQPFIADWMAKQLSPLVKYES | showed activity toward heptanedioyl-ACP methyl ester | –
2 | SEQ ID NO: 58: Spongiibacter sp. IMCC21906 thioesterase (protein, Spongiibacter sp. IMCC21906, Spongiibacter sp; IMCC21906 thioesterase) MTHFIQFLPGRISPRRALALLLVLLLQGALPRIVLADTILLLGDSLSAAYKIPVESSWPALLQDSIDEEHSLKNASVSGETTAGGLARLPALLAKNNTDILIIELGGNDGLRGYPLVRIRENIEKMIKLGQKKGAKVVLLGMHIPPNYGRRYADGFHNIYLSLAEENNTALLPFLLDGVAKQPRLMQGDGIHPTAEAQPIILQNVLSVLRPLLDSTN | showed activity toward heptanedioyl-ACP methyl ester | –
3 | SEQ ID NO: 80: Clostridium sp. CAG:306 thioesterase (protein, Clostridium sp. CAG:306, Clostridium sp; CAG:306 thioesterase) MLFTKEYEIKYYEQNVNGDLKESALLNFLQDIATLSAESLGFGPSFVFANNYAWVVLKYHIELFAPLRNLSSIVIKTEPRGIAKLYAYRDFELYTKDGQCIGKAVSTWVLIDICTRKLLNTQKILADFMAPYQKRETDLVYEKIDSPDELMYQEVFDVRFDDIDVNRHANNSNYIVWALETLPVDFRLKHSPKTIDIKYKKEIGINSRVLSEAQQILTDGNVQTLHVIKDEQNAQDLTSLKIVWQ | showed activity toward heptanedioyl-ACP methyl ester | –
4 | SEQ ID NO: 102: Peptoniphilus harei ACS-146-V-Sch2b thioesterase (protein, Peptoniphilus harei ACS-146-V-Sch2b, Peptoniphilus harei ACS-146-V-Sch2b thioesterase) MKIFCKEYEVMNFLSSDGDLKLNHLVSYLIETSNYQSIDLGLSNEKLLDMGYTWMIYKWKIKINRYPRSYEKIKIKTWASGFKNINAFREFEVYCQGEKIIEASAIFLLIDVEKRKAIKIPEVLAEIYGNNGNRIFKSIERVNEPSELEIANRFSYKILRRDLDFNNHVNNSVYLELIYEAVTDEYTHVKFKDINVNYINELKLGDEIVIDFYREEDRFYFFFKSKDQSQIYARICGVSETPIS | showed activity toward heptanedioyl-ACP methyl ester | impact on monomethyl heptanedioate production [1]: promising
5 | SEQ ID NO: 78: Opitutus terrae thioesterase (protein, Opitutus terrae (strain DSM 11246 / JCM 15787 / PB90-1), Opitutus terrae thioesterase) MPEKLTLNASVLYADVDRTEVLLLRGVFKFLQEAAITHANQFDLGSRAMATRGESWVLNRMAVAVHRYPRYEETMRIETWSRGIKGFKGYREFRVFDAQGAPLFSGSSLWLYVNMRTKSIIRVPAELAAEFPKRDDGAFFPELESLEFAPPAADARRVPIAIRYSDVDVNAHVNNTAYLDFLQEALARAGLSPRPQSIRIKYARAIPAEAETVRVAIEPRGTGAAFAIEDHDTIFAIGEVD | showed activity toward heptanedioyl-ACP methyl ester | –
6 | SEQ ID NO: 74: Cellulosilyticum lentocellum thioesterase (protein, listed as Cellulosilyticum lentocellum, Cellulosilyticum lentocellum (strain ATCC 49066 / DSM 5427 / NCIMB 11756 / RHM5), Cellulosilyticum lentocellum thioesterase) MSRLKENYQVDFDVVDFTGKLSINGLCSYMQTVAAKHATKLGINFYKNGEKPTYYWILSRVKYEIDTYPRWEDLVSLETYPGGYEKLFAVRLFDLTDEKGELIGRITGDYLLMDAEKGRPVRIKGATGPLSVLDFPYEGRKIDKIEVPEVVLREQIRKAYYSELDLNGHMNNAHYIRWTVDMLPLEVLKENEIVSLQINYNASITYGVETKLIIGKNEAGNYLVAGNSLDDSVNYFTSEIILRKNK | showed activity toward heptanedioyl-ACP methyl ester | impact on monomethyl heptanedioate production [1]: promising
7 | SEQ ID NO: 68: Agathobacter rectalis DSM 17629 thioesterase (protein, Eubacterium rectale DSM 17629, Agathobacter rectalis DSM 17629 thioesterase) MAFSFDSRIRYSEVDSSCRLSLTGLTNYFQDCSVFHSQSHDVGIRFLADNHIAWVLSSWQICINRLPLLNEQVKISTWAYGMKAFYGYRNFTLEDAGGSTLAYANSVWVLVDTRTGRPVKVPQEFADTYGLEPQLEMECAKRKLHIPDDMEKKGEIEVPQFFIDSNHHMNNEKYVMLAQQLLPNDFEISELRVEYRKEAKLGDTVISYVKYTSKSVTVVLADTDKKPYSVVEFLSKPVPGK | showed activity toward heptanedioyl-ACP methyl ester | –
8 | SEQ ID NO: 77: Spirochaeta smaragdinae thioesterase (protein, listed as Sediminispirochaeta smaragdinae, Sediminispirochaeta smaragdinae (strain DSM 11293 / JCM 15392 / SEBR 4228), Spirochaeta smaragdinae thioesterase) MKQVSRYTTEHTVMYSETDARGVLSLPSFFALFQEAALLHAEELGFGETYSKQENLMWVLSRLLLEIDAFPKHRDRIRLSTWPKQPQGPFAIRDYILESEEGTVCARATSSWLLLKLDTMRPIRPQTIFANLSMEGIGLAVEGTAPKISEIDNDSKQEMEVTARYSDLDQNNHVNNTRYVRWFLDCYTPEEITTSGNLHFAINYLQAASYSDKLLLRRYDTESDSSVYGYLEDGTPSFSARIERKSD | showed activity toward heptanedioyl-ACP methyl ester | –
9 | SEQ ID NO: 122: Mesorhizobium sp. LC103 aminotransferase (protein, Mesorhizobium sp. LC103, Mesorhizobium sp; LC103 aminotransferase) MLDKPPLSNLQARDVASVLHPYTPLHKLETMGPLVIERGEGVYVYDTQGKAYIEGMSGLWCAGLGFGDEEMIDAATEQLRTLPYYHLFGAKGTESAIELAEKLKEIAPVPISKVFFTSSGSEANDTQVKLAWYLNNALGRPNKKKIISRQKAYHGVTIMSASLTGLPYNHIGWDLPVDRVLHTDCPHYYRFGQEGESEAEFVNRMVKSLRDLIEREGPDTIAAMIAEPVMGAGGVIVPPEGYYPAIQAVLDEHDIIMISDEVINGFGRTGNWWGSQTLGMTPKTISAAKQMTSAYAPLGAVMVPEDIYQAYVSHSEKIGTFGHGFTYGGHPLGCALGVKAIEIYQKRDILGHVRSLSPQFERRMRKLTEHPLVGEARYCGLVGGVEIVADKKTKRPFDPKVGVGPQCAKFVEERGAILRAIGDTIALCPPMIIKEDELDELFDRLEKALDDTEAWVAKEGLRAL | – | 7-aminoheptanoate yield compared to the positive control (F2XBU9) [2]: higher 7-aminoheptanoate yields
10 | SEQ ID NO: 72: Terrisporobacter othiniensis thioesterase (protein, listed as Terrisporobacter othiniensis) MERVFTKEYEVTYRDTDARGECFLTSYMNFMADCGLSQDEKYGFVIADMVKENHTWMLVDYEITIYKYVKYKEKLRAITYIEGMNKFYAVRYFKIYNDKDDLILEGKTLVILVDSKKRRPLSIPDEHYKAYGVEEKTPTIGRNKLKLSKCKNVDYKKEFNVRYSDIDLNLHVGNVTYLGWILETIPFEIMTDYKIYSVKIKYQKELTYGDKVSVKTEMEYNDNNISAYHEIINESEEVVALLETHWNEI | showed activity toward heptanedioyl-ACP methyl ester | impact on monomethyl heptanedioate production [1]: promising; monomethyl heptanedioate production [1]: 48 mg/L
11 | FatB2: plant thioesterase FatB2 from Cuphea hookeriana, fatty acid acyl-ACP thioesterase, positive control (protein, listed as Cuphea hookeriana) MVAAAASSAFFPVPAPGASPKPGKFGNWPSSLSPSFKPKSIPNGGFQVKANDSAHPKANGSAVSLKSGSLNTQEDTSSSPPPRTFLHQLPDWSRLLTAITTVFVKSKRPDMHDRKSKRPDMLVDSFGLESTVQDGLVFRQSFSIRSYEIGTDRTASIETLMNHLQETSLNHCKSTGILLDGFGRTLEMCKRDLIWVVIKMQIKVNRYPAWGDTVEINTRFSRLGKIGMGRDWLISDCNTGEILVRATSAYAMMNQKTRRLSKLPYEVHQEIVPLFVDSPVIEDSDLKVHKFKVKTGDSIQKGLTPGWNDLDVNQHVSNVKYIGWILESMPTEVLETQELCSLALEYRRECGRDSVLESVTAMDPSKVGVRSQYQHLLRLEDGTAIVNGATEWRPKNAGANGAISTGKTSNGNSVS | – | monomethyl heptanedioate production higher than the negative control [1]: about 10 mg/L; monomethyl heptanedioate production [1]: approximately 14 mg/L
12 | SEQ ID NO: 79: Thermincola potens thioesterase (protein, Thermincola potens (strain JR)) MEPYQTSIPVHYYEINNHRQASPVAILNYLEEAAIRHSESVGWGIEKLLANSRGWLLTRWSLHMQKYPQWGETVNIETWPYKFERFYATREFRISDREGRVLGAATTLWVFFDLRRKRPVRIPPDIYDAYGTGAERMVADEFADLPVVDEPEIKLEFRVRLSDIDTNDHVNNTKYVEWLLETVPLSVHNGFLLSSVEIAYKKETSYGSTVLCGIKETEAGERQTTFLHIILDKDSGTELARARTVWQKRSKI | showed activity toward heptanedioyl-ACP methyl ester | –

From US10801046B2, “Methods and materials for biosynthesizing multifunctional, multivariate molecules via carbon chain modification” (INVISTA NORTH AMERICA S.A.R.L., priority 2016, dated 2020)
